Measured values: publication PMC8043444 (bioRxiv, 2021)

Key:
[1] = biological target: T1, SARS-CoV-2 RBD WT for SPR binding assays (SARS-CoV-2, UniProt P0DTC2); assay: SPR
[2] = biological target: T1, SARS-CoV-2 RBD WT for SPR binding assays; assay: cell-based or functional assay
[3] = biological target: SARS-CoV-2 RBD WT for crystallization (SARS-CoV-2, UniProt P0DTC2, deglycosylated by overnight incubation with EndoH glycosidase); assay: crystal structure

B1: S2H97 IgG1 (LS) (antibody, V domains shown)
VH: QVRLVQSGAEVKKSGESLKISCKGSGYSFTSYWIGWVRQMPGKGLEWMGIIYPGDSDTRYSPSFQGQVTISADKSISTVYLQWSSLKASDTAMYYCARQWSHYTYDYYYWGQGTLVTISS
VL: QSVLTQPASVSGSPGQSITISCTGISSDVGGYNSVSWYQQHPGKAPKLMIYDVTNRPSGVSNRFSGSKSGNTASLTISGLQAEDEADYYCSSYTSSSTPPYVFGTGTKVSVL
B1 was tested, and the Kd [1] was 0.04 nM and the “neutralisation of authentic SARS-CoV-2-Nluc on Vero E6 cells (IF/luc), IC90” value (“neutralisation” for short) [2] was 3290.

B2: S2H97 Fab (Fab, V domains shown)
VH: QVRLVQSGAEVKKSGESLKISCKGSGYSFTSYWIGWVRQMPGKGLEWMGIIYPGDSDTRYSPSFQGQVTISADKSISTVYLQWSSLKASDTAMYYCARQWSHYTYDYYYWGQGTLVTISS
VL: QSVLTQPASVSGSPGQSITISCTGISSDVGGYNSVSWYQQHPGKAPKLMIYDVTNRPSGVSNRFSGSKSGNTASLTISGLQAEDEADYYCSSYTSSSTPPYVFGTGTKVSVL
Binder B2 has a Kd [1] of 0.03 nM.

B3: S2D106 IgG1 (LS) (antibody, V domains shown)
VH: EVQLVQSGAEVKKPGSSVKVSCKASGGPFSSSAISWVRQAPGQGLEWMGGIIPMVGTANYAQKFQGRVTITADESTSTAYMELSSLRSEDTAVYYCARDSRYCSGGSCYSVWFDPWGQGTLVTVSS
VL: not shown
In the case of B3, the Kd [1] is reported as 0.04 nM and the “neutralisation” value [2] is reported as 23.6.

B4: S2D106 Fab (Fab, V domains shown)
VH: EVQLVQSGAEVKKPGSSVKVSCKASGGPFSSSAISWVRQAPGQGLEWMGGIIPMVGTANYAQKFQGRVTITADESTSTAYMELSSLRSEDTAVYYCARDSRYCSGGSCYSVWFDPWGQGTLVTVSS
VL: not shown
B4 was tested, and the Kd [1] was 0.05 nM.

B5: S304 IgG1 (LS) (antibody, V domains shown)
VH: EVQLVESGGGLVQPGGSLRLSCAASGFTFSSYDMHWVRQTTGKGLEWVSTIGTAGDTYYPDSVKGRFTISREDAKNSLYLQMNSLRAGDTAVYYCARGDSSGYYYYFDYWGQGTLLTVSS
VL: DIEMTQSPSSLSAAVGDRVTITCRASQSIGSYLNWYQQKPGKAPKLLIYAASSLQSGVPSRFSGSGSGTDFTLTISSLQPEDFAIYYCQQSYVSPTYTFGPGTKVDIK
Binder B5 has a Kd [1] of 0.4 nM.

B6: S2E12 IgG1 (LS) (antibody, V domains shown)
VH: not shown
VL: DIVLTQTPGTLSLSPGERATLSCRASQSVSSSYLAWYQQKPGQAPRLLIYGASSRATGIPDRFSGSGSGTDFTLTISRLEPEDFAVYYCQQYVGLTGWTFGQGTKVEIK
In the case of B6, the Kd [1] is reported as 0.7 nM and the “neutralisation” value [2] is reported as 14.

B7: S2X35 IgG1 (LS) (antibody, V domains shown)
VH: QVQLVQSGAEVKKPGASVKVSCKASGYTFTNYGISWVRQAPGQGLEWMGWISAYKGNTNYAQKLQGRVTMTTDTSTSTAYMELRSLRSDDTAVYYCARPDYQVLGYDFWIGYYGMDVWGQGTTVIVSS
VL: QSVLTQPPSVSGAPGQRVTISCTGSSSNIGAGYDVHWYQQLPGTAPKLLIYGNTNRPSGVPDRFSGSKSGTSASLAITGLQAEDEADYYCQSYDSSLSGSEVVFGGGTKLTVL
In the case of B7, the Kd [1] is reported as 0.06 nM and the “neutralisation” value [2] is reported as 592.

B8: S2X259 Fab (Fab, V domains shown)
VH: QVQLVQSGAEVKKPGSSVKVSCKASGGIFNTYTISWVRQAPGQGLEWMGRIILMSGMANYAQKIQGRVTITADKSTSTAYMELTSLRSDDTAVYYCARGFNGNYYGWGDDDAFDIWGQGTLVTVYS
VL: QTVLTQPPSVSGAPGQRVTISCTGSNSNIGAGYDVHWYQQLPGTAPKLLICGNSNRPSGVPDRFSGSKSGTSASLAITGLQAEDEADYYCQSYDSSLSGPNWVFGGGTKLTVL
B8: binds [3].
